# Laboratory results reported in IntAct's records for PubMed 31515488.
# B1: DCC-interacting protein 13-beta (Homo sapiens), Q8NEU8 (parent)
# chain: MPAVDKLLLEEALQDSPQTRSLLSVFEEDAGTLTDYTNQLLQAMQRVYGAQNEMCLATQQLSKQLLAYEKQNFALGKGDEEVISTLHYFSKVVDELNLLHTELAKQLADTMVLPIIQFREKDLTEVSTLKDLFGLASNEHDLSMAKYSRLPKKKENEKVKTEVGKEVAAARRKQHLSSLQYYCALNALQYRKQMAMMEPMIGFAHGQINFFKKGAEMFSKRMDSFLSSVADMVQSIQVELEAEAEKMRVSQQELLSVDESVYTPDSDVAAPQINRNLIQKAGYLNLRNKTGLVTTTWERLYFFTQGGNLMCQPRGAVAGGLIQDLDNCSVMAVDCEDRRYCFQITTPNGKSGIILQAESRKENEEWICAINNISRQIYLTDNPEAVAIKLNQTALQAVTPITSFGKKQESSCPSQNLKNSEMENENDKIVPKATASLPEAEELIAPGTPIQFDIVLPATEFLDQNRGSRRTNPFGETEDESFPEAEDSLLQQMFIVRFLGSMAVKTDSTTEVIYEAMRQVLAARAIHNIFRMTESHLMVTSQSLRLIDPQTQVSRANFELTSVTQFAAHQENKRLVGFVIRVPESTGEESLSTYIFESNSEGEKICYAINLGKEIIEVQKDPEALAQLMLSIPLTNDGKYVLLNDQPDDDDGNPNEHRGAESEA
# partner: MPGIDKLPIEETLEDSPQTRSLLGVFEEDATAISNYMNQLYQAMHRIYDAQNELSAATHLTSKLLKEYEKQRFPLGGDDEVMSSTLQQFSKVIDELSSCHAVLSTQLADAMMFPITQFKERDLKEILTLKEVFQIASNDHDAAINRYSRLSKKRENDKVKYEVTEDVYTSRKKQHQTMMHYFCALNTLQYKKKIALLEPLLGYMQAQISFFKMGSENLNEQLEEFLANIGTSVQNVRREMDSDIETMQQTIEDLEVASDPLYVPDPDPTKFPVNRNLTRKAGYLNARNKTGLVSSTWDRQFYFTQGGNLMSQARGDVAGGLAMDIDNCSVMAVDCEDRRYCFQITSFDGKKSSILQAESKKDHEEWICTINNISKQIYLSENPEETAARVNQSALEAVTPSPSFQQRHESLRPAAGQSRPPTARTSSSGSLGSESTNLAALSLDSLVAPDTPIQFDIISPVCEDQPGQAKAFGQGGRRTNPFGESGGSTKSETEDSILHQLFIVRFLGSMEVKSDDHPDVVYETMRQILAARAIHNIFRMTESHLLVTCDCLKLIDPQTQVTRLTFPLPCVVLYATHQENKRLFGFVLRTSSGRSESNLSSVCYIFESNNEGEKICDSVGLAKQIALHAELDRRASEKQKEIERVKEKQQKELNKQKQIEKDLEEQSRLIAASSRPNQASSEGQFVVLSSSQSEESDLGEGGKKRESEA
# B2: Protein BANP (Homo sapiens), Q8N9N5 (parent)
# chain: MMSEHDLADVVQIAVEDLSPDHPVVLENHVVTDEDEPALKRQRLEINCQDPSIKTICLRLDSIEAKLQALEATCKSLEEKLDLVTNKQHSPIQVPMVAGSPLGATQTCNKVRCVVPQTTVILNNDRQNAIVAKMEDPLSNRAPDSLENVISNAVPGRRQNTIVVKVPGQEDSHHEDGESGSEASDSVSSCGQAGSQSIGSNVTLITLNSEEDYPNGTWLGDENNPEMRVRCAIIPSDMLHISTNCRTAEKMALTLLDYLFHREVQAVSNLSGQGKHGKKQLDPLTIYGIRCHLFYKFGITESDWYRIKQSIDSKCRTAWRRKQRGQSLAVKSFSRRTPNSSSYCPSEPMMSTPPPASELPQPQPQPQALHYALANAQQVQIHQIGEDGQVQVGHLHIAQVPQGEQVQITQDSEGNLQIHHVGQDGQLLEATRIPCLLAPSVFKASSGQVLQGAQLIAVASSDPAAAGVDGSPLQGSDIQVQYVQLAPVSDHTAGAQTAEALQPTLQPEMQLEHGAIQIQ
# B3: Programmed cell death 6-interacting protein (Homo sapiens), Q8WUM4 (parent)
# chain: MATFISVQLKKTSEVDLAKPLVKFIQQTYPSGGEEQAQYCRAAEELSKLRRAAVGRPLDKHEGALETLLRYYDQICSIEPKFPFSENQICLTFTWKDAFDKGSLFGGSVKLALASLGYEKSCVLFNCAALASQIAAEQNLDNDEGLKIAAKHYQFASGAFLHIKETVLSALSREPTVDISPDTVGTLSLIMLAQAQEVFFLKATRDKMKDAIIAKLANQAADYFGDAFKQCQYKDTLPKEVFPVLAAKHCIMQANAEYHQSILAKQQKKFGEEIARLQHAAELIKTVASRYDEYVNVKDFSDKINRALAAAKKDNDFIYHDRVPDLKDLDPIGKATLVKSTPVNVPISQKFTDLFEKMVPVSVQQSLAAYNQRKADLVNRSIAQMREATTLANGVLASLNLPAAIEDVSGDTVPQSILTKSRSVIEQGGIQTVDQLIKELPELLQRNREILDESLRLLDEEEATDNDLRAKFKERWQRTPSNELYKPLRAEGTNFRTVLDKAVQADGQVKECYQSHRDTIVLLCKPEPELNAAIPSANPAKTMQGSEVVNVLKSLLSNLDEVKKEREGLENDLKSVNFDMTSKFLTALAQDGVINEEALSVTELDRVYGGLTTKVQESLKKQEGLLKNIQVSHQEFSKMKQSNNEANLREEVLKNLATAYDNFVELVANLKEGTKFYNELTEILVRFQNKCSDIVFARKTERDELLKDLQQSIAREPSAPSIPTPAYQSSPAGGHAPTPPTPAPRTMPPTKPQPPARPPPPVLPANRAPSATAPSPVGAGTAAPAPSQTPGSAPPPQAQGPPYPTYPGYPGYCQMPMPMGYNPYAYGQYNMPYPPVYHQSPGQAPYPGPQQPSYPFPQPPQQSYYPQQ
# B4: Zinc finger protein Aiolos (Homo sapiens), Q9UKT9 (parent)
# chain: MEDIQTNAELKSTQEQSVPAESAAVLNDYSLTKSHEMENVDSGEGPANEDEDIGDDSMKVKDEYSERDENVLKSEPMGNAEEPEIPYSYSREYNEYENIKLERHVVSFDSSRPTSGKMNCDVCGLSCISFNVLMVHKRSHTGERPFQCNQCGASFTQKGNLLRHIKLHTGEKPFKCHLCNYACQRRDALTGHLRTHSVEKPYKCEFCGRSYKQRSSLEEHKERCRTFLQSTDPGDTASAEARHIKAEMGSERALVLDRLASNVAKRKSSMPQKFIGEKRHCFDVNYNSSYMYEKESELIQTRMMDQAINNAISYLGAEALRPLVQTPPAPTSEMVPVISSMYPIALTRAEMSNGAPQELEKKSIHLPEKSVPSERGLSPNNSGHDSTDTDSNHEERQNHIYQQNHMVLSRARNGMPLLKEVPRSYELLKPPPICPRDSVKVINKEGEVMDVYRCDHCRVLFLDYVMFTIHMGCHGFRDPFECNMCGYRSHDRYEFSSHIARGEHRALLK
# partner: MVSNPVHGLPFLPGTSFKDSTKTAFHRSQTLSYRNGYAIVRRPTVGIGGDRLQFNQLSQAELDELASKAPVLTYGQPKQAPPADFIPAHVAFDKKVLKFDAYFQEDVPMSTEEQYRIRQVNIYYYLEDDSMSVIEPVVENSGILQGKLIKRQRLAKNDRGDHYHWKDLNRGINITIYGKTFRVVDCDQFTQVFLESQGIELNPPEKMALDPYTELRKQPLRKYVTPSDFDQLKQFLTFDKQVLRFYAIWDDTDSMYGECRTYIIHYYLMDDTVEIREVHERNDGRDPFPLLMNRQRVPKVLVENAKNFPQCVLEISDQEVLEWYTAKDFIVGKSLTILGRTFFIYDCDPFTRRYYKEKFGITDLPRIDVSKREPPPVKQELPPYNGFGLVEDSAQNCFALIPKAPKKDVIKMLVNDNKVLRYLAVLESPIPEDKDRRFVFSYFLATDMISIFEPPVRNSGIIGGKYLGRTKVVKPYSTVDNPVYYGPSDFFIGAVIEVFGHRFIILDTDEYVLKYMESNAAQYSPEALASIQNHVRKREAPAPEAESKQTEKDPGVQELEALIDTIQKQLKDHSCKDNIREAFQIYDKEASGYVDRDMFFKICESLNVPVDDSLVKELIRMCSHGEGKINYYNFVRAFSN
# B5: Complex I assembly factor TIMMDC1, mitochondrial (Homo sapiens), Q9NPL8 (parent)
# chain: MEVPPPAPRSFLCRALCLFPRVFAAEAVTADSEVLEERQKRLPYVPEPYYPESGWDRLRELFGKDEQQRISKDLANICKTAATAGIIGWVYGGIPAFIHAKQQYIEQSQAEIYHNRFDAVQSAHRAATRGFIRYGWRWGWRTAVFVTIFNTVNTSLNVYRNKDALSHFVIAGAVTGSLFRINVGLRGLVAGGIIGALLGTPVGGLLMAFQKYSGETVQERKQKDRKALHELKLEEWKGRLQVTEHLPEKIESSLQEDEPENDAKKIEALLNLPRNPSVIDKQDKD
# partner: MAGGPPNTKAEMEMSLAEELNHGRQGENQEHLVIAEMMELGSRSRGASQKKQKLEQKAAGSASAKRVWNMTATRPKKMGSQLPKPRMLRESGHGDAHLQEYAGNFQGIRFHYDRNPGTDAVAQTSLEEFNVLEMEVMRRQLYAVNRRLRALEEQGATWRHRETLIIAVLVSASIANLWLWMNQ
# Variants of: B1
# Settings: with dp13a_human APPL1, Q9UKG1
row,Variant,effect of a mutation on the interaction
1,K70R,with no effect

# Variants of: B2
# Settings: with zn471_human ZNF471, Q9BX82
# zn471_human ZNF471, Q9BX82, sequence (Q9BX82 whole entry): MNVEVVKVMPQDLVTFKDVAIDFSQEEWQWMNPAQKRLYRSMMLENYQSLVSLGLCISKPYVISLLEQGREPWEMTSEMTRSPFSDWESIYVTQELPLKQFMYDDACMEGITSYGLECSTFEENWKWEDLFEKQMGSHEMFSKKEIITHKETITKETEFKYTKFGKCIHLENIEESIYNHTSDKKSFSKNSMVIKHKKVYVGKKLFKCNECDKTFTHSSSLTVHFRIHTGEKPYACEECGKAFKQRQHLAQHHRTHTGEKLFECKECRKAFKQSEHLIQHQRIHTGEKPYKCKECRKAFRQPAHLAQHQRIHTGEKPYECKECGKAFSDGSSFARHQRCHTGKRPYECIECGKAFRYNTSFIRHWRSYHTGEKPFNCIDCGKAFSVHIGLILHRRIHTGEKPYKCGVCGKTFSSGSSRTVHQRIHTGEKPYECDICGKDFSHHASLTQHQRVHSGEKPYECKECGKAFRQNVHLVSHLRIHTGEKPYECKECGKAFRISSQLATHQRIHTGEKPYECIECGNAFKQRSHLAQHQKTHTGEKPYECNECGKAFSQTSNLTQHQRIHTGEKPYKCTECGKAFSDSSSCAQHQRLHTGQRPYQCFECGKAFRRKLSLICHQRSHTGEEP
row,Variant,effect of a mutation on the interaction
1,P348S,with no effect

# Variants of: B3
# Settings: with pdcd6_human PDCD6, O75340
# pdcd6_human PDCD6, O75340, sequence (O75340 whole entry): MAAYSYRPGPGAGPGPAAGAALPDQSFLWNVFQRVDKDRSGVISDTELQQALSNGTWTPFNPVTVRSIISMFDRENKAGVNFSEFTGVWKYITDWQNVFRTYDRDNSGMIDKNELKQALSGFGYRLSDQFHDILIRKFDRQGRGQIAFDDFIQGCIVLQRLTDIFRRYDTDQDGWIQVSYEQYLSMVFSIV
row,Variant,effect of a mutation on the interaction
1,N550S,with no effect
2,A309T,with no effect
3,S730L,with no effect
4,G778A,with no effect
5,G429S,with no effect

# Variants of: B4
# Settings: with efhc1_human EFHC1, Q5JVL4
row,Variant,effect of a mutation on the interaction
1,N119D,with no effect
2,A24V,with no effect

# Variants of: B5
# Settings: with fate1_human FATE1, Q969F0
row,Variant,effect of a mutation on the interaction
1,N76D,with no effect
